Results: paper PMC7514066, “ICOS agonism by JTX-2011 (vopratelimab) requires initial T cell priming and Fc cross-linking for optimal T cell activation and anti-tumor immunity in preclinical models” (PLoS ONE, 2020)

Target: T1, hB7-1-Fc (human, UniProt P33681 35-242)
T1 construct: human B7-1 (CD80), recombinant Fc fusion; also called rhB7-1; source: bought: R&D Systems
T1 sequence (looked up): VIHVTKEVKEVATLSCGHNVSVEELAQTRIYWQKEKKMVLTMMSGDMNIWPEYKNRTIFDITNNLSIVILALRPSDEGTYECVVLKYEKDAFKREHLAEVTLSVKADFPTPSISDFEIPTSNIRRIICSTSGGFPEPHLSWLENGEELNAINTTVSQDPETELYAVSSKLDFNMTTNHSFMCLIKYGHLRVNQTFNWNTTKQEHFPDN
Test: BLI; ForteBio Octet; tested 'in a similar way' to the ICOS antibodies (there: antibody loaded on biosensors at 10 ug/mL, Fc protein in solution, dissociation in kinetics buffer: PBS with 0.1% BSA, 0.05% sodium azide, 0.02% Tween-20; global 1:1 fit); which partner was loaded is not said for this experiment
Conditions: both partners purified

B1: mCD28-Fc (Fc fusion, mouse, UniProt P31041 20-150, looked up)
chain: NKILVKQSPLLVVDSNEVSLSCRYSYNLLAKEFRASLYKGVNSDVEVCVGNGNFTYQPQFRSNAEFNCDGDFDNETVTFRLWNLHVNHTDIYFCKIEFMYPPPYLDNERSNGTIIHIKEKHLCHTQSSPKL
notes: mouse CD28, recombinant Fc fusion; source: bought: R&D Systems
Which Kd does the source give for B1 here?
The Kd was 14 nM.
